Test results: WO2012007688A1 (dated 2012)

Target: T1, fragment C of tetanus toxoid (Sigma, T3694) (Clostridium tetani, UniProt P04958 865-1315)
T1 sequence: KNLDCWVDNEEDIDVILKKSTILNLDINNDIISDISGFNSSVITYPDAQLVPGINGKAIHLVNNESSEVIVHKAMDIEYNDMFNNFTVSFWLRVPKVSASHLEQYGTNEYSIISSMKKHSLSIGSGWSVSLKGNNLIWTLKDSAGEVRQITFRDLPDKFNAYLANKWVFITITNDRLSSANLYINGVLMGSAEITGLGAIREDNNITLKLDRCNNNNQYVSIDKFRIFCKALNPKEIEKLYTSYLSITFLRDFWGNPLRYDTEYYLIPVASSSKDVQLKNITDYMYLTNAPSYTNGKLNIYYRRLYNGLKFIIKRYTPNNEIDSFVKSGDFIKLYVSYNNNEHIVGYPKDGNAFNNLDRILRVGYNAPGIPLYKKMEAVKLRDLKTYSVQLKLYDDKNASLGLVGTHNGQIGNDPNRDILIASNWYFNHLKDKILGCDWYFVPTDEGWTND

B1: Antibody 4 (human monoclonal antibody against tetanus toxin) (antibody, V domains shown)
VH: EVQLVESGGGLVQPGGSLRLSCAASGFSFSRHWMSWVRQAPGKGLEWVANIHYDLSEKYFVDSVRGRFTISRDNAKNSLYLEMNSLRADDTAVYYCARGGRSTVWPRGWFDLWGQGTLVTVSS
VL: EIVLTQSPGTLSLSPGERATLSCRASQSVSSSYLAWYQQKPGQAPRLLIYGASGRATGIPDRFSGSGSGTHFTLTISRLEPEDFAVYFCQQFADSRTFGQGTKLEIKR
Kd: 34 nM

B2: Antibody 5 (human monoclonal antibody against tetanus toxin) (antibody, V domains shown)
VH: QLVQSGAEVKKPGSSVKVSCKASGGTLSGFAINWVRQAPGQGLEWMGGIIPDTGSPTYVQRFQGRVTMTADKSTSTAYMELNSLRSDDTAVYYCARSVMITFGGVLTPPNFDFWGQGTLVTVSS
VL: DIQMTQSPSSLSASVGDRVTISCRASQAISIYLNWYQQRPGKAPRLLIYAASNLQSGVPSRFSASGSGTDFTLTISSLQPEDFATYYCQQSKENPPTFGQGTKLEIKR
Kd: 0.16 nM
